Test results: article PMC2780292, “Structural Requirements for PACSIN/Syndapin Operation during Zebrafish Embryonic Notochord Development” (PLoS ONE, 2009)

Biological target: the molecule itself
Assay: crystal structure; selenomethionine SAD, 2.7 Å; crystals from 17% PEG 3350, 0.1 M disodium phosphate, hanging drop; two molecules in the asymmetric unit

B1: Drosophila Syndapin N-terminal EFC domain (domain or fragment, Drosophila melanogaster)
chain: SDSFWEPGNYKRTTKRIEDGYKLCNDLQQLIQERADIEKGYAKSLRTWSKKWGELIEKGPEYGTTEAAWKGVLTESERISDVHMKIKDNLCNDVNSQIKTWQKENYHHTLMQIKERKDLEDLFKKAQKPWAKLLAKVEKAKADYHSACKTERSATNQERNANADSSLSPDQVKKMHDRVQKTKDQVQKCREKYEQAIAEITKYNSVYIEDMTSVFEKCQTFEKTRLQFFKEILFNVHSCLDLTKVQSLPQIYEEFSHTINNADQQKDLKWWSNNHGINMAMNWPSFVEYT
modifications: selenomethionine-substituted
notes: the model holds residues 14-303 (chain A, 169-188 missing) and 14-298 (chain B); The fragment arose from full-length Syndapin during crystallization; Antiparallel homodimer; also called Syndapin EFC domain; Syndapin EFC dimer; source: crystals contained only the EFC domain
  stoichiometry N: 2
